This experiment has as its target T1, linear peptide SLDKHKHKKLQSFYP (SEQ ID NO:9) from HERV-K-Env (human endogenous retrovirus type K …).
T1 construct: 15-mer synthesized on a solid support in the Pepscan peptide array; It corresponds to the 298-312 region of the HERV-K-Env protein described by Dewannieux et al 2005
T1 peptide: SLDKHKHKKLQSFYP
Kind of experiment: Pepscan peptide array ELISA, antibody at 1 µg/ml.

B1: GN_mAb_Env_K01 (antibody, V domains shown)
VH: QVQLQQPGAELVRPGASVKLSCKASGYTFTSYWMNWVKQRPEQGLEWIGRIDPYDSETHYNQKFKDKAILTVDKSSSTAYMQLSSLTSEDSAVYYCASLYYYGISLWGQGTLVTVS
VL: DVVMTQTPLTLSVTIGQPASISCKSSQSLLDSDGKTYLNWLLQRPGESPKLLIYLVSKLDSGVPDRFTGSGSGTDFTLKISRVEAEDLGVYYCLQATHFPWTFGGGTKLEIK
notes: also called GN K01; GN K01 Ig
As for B1, the binding result is on record as “binds”.

Source of the values: US20190345232A1 (GENEURO, published 2019).
